Results on one molecule are retold here after publication PMC12499889, “Voltage-matrix nanopore profiling for the discrimination of protein mixtures”.

The target in the data set is carcinoembryonic antigen (CEA) (UniProt P06731 35-685). Nature of the data set: solid-state nanopore (single-molecule); 3.6 M LiCl; 10 nM CEA, 1 uM aptamer; shift in signal distribution; 3.6 M LiCl, 10 mM HEPES-KOH pH 8.0; 1 uM aptamer incubated with 10 nM CEA for 1 h; temperature not stated; nanopore at -50 to -300 mV. The settings on record: protein: commercial.
carcinoembryonic antigen (CEA), sequence (P06731 35-685): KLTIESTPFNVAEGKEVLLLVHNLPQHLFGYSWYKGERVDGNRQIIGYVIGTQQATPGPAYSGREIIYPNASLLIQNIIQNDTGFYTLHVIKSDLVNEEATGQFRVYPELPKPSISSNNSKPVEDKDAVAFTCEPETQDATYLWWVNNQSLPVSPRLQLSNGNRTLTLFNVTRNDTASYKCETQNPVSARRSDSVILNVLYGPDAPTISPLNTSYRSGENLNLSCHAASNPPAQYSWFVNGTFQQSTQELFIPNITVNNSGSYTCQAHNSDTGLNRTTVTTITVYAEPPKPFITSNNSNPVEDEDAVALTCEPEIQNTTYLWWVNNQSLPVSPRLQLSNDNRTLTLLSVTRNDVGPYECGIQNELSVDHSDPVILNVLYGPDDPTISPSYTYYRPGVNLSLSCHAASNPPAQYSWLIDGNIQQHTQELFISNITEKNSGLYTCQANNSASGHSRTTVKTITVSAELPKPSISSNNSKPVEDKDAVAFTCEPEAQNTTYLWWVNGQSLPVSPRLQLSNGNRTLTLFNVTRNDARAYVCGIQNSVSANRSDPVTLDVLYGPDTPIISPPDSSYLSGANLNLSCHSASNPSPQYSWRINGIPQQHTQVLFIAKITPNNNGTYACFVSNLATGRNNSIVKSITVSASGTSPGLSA

B1: CEA DNA aptamer (ssDNA)
DNA: TCGCGCGAGTCGTCTGGGAGCTACGTTTAGCGAGTCCGACGCTCGGTGCCTCTTCGGGAGGACGATGCGG
On to B1, for which the binding result was “binds”.
